Consider 6 molecules from patent publication US20150056222A1 (Regeneron, published 2015).

Where a chain is given by its changes, count along the chain named. In names and notes the source's numbering stands.

To fix the notation:
T1: mouse PRLR on HEK293 cells (mouse, UniProt Q08501 20-608)
T1 construct: whole, on cells; also called mPRLR; HEK293/mPRLR
T1 sequence (looked up): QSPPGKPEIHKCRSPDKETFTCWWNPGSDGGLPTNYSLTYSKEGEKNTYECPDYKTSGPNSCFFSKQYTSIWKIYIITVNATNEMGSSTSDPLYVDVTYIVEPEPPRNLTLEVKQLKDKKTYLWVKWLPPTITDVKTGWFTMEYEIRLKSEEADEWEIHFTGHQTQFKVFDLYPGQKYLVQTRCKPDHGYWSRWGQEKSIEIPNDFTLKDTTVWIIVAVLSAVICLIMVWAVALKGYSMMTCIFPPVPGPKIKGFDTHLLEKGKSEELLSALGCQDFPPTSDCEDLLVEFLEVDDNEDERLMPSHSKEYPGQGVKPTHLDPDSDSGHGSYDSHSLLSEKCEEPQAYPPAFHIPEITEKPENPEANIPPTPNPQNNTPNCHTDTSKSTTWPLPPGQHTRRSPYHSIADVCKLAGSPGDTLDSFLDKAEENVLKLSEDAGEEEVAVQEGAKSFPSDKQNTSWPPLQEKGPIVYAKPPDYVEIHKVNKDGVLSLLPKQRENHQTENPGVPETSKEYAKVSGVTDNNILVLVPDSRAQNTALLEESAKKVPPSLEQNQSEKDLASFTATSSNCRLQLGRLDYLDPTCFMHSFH

T2: monkey (macaca fascicularis) PRLR on HEK293 cells (macaca fascicularis, UniProt A0A2K5WXK1 25-619)
T2 construct: also called mfPRLR; HEK293/mfPRLR
T2 sequence: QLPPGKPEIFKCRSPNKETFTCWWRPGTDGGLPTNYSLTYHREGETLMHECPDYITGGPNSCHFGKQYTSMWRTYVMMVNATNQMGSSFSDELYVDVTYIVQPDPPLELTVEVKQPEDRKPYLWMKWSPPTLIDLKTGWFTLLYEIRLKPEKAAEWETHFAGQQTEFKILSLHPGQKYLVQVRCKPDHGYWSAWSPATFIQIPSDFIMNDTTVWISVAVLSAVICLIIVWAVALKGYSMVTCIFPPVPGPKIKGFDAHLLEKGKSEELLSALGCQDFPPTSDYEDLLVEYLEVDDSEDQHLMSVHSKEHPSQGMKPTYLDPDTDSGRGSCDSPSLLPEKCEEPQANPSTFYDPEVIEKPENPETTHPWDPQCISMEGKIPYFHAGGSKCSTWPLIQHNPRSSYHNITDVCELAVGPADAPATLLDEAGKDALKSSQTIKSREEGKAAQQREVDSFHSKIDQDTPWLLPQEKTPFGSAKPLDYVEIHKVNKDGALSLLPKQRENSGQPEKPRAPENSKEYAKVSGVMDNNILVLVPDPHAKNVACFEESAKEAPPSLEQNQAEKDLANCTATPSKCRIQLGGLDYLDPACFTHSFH

T3: human prolactin receptor (PRLR) on cells (human, UniProt P16471 25-622)
T3 sequence: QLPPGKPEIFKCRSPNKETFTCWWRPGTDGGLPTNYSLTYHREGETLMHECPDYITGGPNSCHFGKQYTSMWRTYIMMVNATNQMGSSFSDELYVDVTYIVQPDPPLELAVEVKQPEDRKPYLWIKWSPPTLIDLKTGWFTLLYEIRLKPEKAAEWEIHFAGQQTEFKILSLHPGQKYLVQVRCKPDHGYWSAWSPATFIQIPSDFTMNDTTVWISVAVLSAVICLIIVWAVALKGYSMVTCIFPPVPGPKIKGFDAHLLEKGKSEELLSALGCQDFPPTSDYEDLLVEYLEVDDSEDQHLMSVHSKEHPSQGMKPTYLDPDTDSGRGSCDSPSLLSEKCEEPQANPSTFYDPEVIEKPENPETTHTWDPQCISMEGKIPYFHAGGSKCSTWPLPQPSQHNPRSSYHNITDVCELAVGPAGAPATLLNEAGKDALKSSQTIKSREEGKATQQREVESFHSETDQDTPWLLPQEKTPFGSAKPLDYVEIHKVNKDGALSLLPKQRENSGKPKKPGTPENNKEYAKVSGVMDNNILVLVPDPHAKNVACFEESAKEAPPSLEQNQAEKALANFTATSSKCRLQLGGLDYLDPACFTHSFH

T4: hPRLR.mFc (soluble dimeric human PRLR) (human)
T4 construct: dimeric construct
T4 chain: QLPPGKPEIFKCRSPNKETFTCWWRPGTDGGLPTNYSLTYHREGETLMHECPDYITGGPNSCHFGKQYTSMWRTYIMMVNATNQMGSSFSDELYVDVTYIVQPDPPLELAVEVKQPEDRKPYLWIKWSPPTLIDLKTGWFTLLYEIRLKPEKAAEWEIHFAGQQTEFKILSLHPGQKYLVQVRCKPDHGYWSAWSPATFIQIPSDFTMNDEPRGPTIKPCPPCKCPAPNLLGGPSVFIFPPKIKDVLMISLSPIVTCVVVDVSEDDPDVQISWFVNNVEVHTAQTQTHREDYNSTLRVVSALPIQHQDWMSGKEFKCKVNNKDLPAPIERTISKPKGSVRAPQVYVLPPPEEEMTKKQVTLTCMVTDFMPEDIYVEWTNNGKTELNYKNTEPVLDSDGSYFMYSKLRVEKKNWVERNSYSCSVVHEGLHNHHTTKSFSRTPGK

T5: hPRLR.mmh (soluble monomeric human PRLR) (human)
T5 construct: soluble monomeric construct
T5 chain: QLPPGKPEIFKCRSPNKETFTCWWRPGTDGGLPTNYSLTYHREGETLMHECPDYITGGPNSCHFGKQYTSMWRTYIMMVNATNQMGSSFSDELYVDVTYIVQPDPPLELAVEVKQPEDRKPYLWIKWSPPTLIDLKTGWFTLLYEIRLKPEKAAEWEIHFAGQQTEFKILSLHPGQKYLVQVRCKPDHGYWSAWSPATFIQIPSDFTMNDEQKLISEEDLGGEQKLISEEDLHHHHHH

T6: mfPRLR.mmh (soluble monomeric macaca fascicularis PRLR) (macaca fascicularis)
T6 construct: soluble monomeric construct; also called macaca fascicularis (mf) PRLR.mmh
T6 chain: T5 chain with I76V, A110T, I125M, I158T, T207I

B1: H1H6803P (antibody, human IgG1, V domains shown)
VH: EVQLVESGGGVVRPGGSLRLSCAASGFKFDDYGMTWVRHVPGKGLEWVSGINWNGGRTGYTDSVKGRFTISRDNAKNSLYLQMNSLRAEDTALYHCAGARRDAFDIWGQGTMVTVSS
VL: DIQMTQSPSSLSASIGDRVTITCRASQNIIKYLNWYQQNAGKAPKLLIYTASSLQSGVPSRFSGSGSGTDFTLTISSLQPEDFATYYCQQSSSSPYTFGQGTKLEIK
notes: human IgG1 Fc (H1H)
B2: H1H6800P (antibody, human IgG1, V domains shown)
VH: EVQLVESGGGLVQPGRSLRLSCAASGFTFDGYAMHWVRQGPGKGLEWVSGISWYSDTLGYADSVKGRFTISRDNAKNSLYLQMNSLRTEDTAFYYCAKISSSGWAFDYWGQGTLVTVSS
VL: EIVLTQSPGTLSLSPGERATLSCRASHSVSSAYLAWYQQKPGQTPRLLIYGTSSRATGIPDRFSGSGSGTDFTLTISRLEPEDFAVYYCQQYGSSPLFTFGPGTKVDIK
notes: human IgG1 Fc (H1H)
B3: H1H6762P (antibody, human IgG1, V domains shown)
VH: QVQLVESGGGVVQPGRSLRLSCAASGFTFSHYGMVWVRQPPGKGLEWVALISFDGTTKYYADSVKGRFTISRDNSKNTLYLQMNSLRAEDTAVYFCVGAIAAAAFDLWGRGTLVTVSS
VL: EIVMTQSPATLSVSPGERATLSCRASQSVSSDLAWYQQKPGQAPRLLIYSASARATGIPARFTGSGSGTDFTLTISSLQSEDFAVYYCQQYNNWPMYTFGQGTKLEIK
notes: human IgG1 Fc (H1H)
B4: H1H6975N (antibody, human IgG1, V domains shown)
VH: EVHLVESGGGLVQPGGSLRLSCAASGFTFSSYEMNWVRQTPGKGLEWISHISSRSVIIYYADSVKGRFTISRDNAKNSLFLQMNSLRAEDTAVYFCAGITIFGIPEYWGQGTLVTVSS
VL: EIVLTQSPATLSLSPGERATLSCRASQSVSSYFAWYQQKPGQAPRLLIYDASSRATGIPTRFSGSGSGTDFTLTISSLEPEDFAVYYCQQRSSWPITFGQGTRLEIK
notes: also called H2M6975N
B5: H1H6959N2 (antibody, human IgG1, V domains shown)
VH: EVQLVESGGGLVQPGRSLRLSCAASGFTFDDYAMHWVRQAPGKGLEWVSGISWHSGIIGYADSVKGRFTISRDNAKNSLYLQMNSLRTEDAALYYCAKIGSYFYFDSWGQGTLVTVSS
VL: EIVLTQSPGTLSLSPGERATLSCRASQSVSSNYLAWYQQKPGQAPRLLIYGASSRATGIPDRFSGSGSGTDFTLTISRLEPEDFAVYYCQQFGSSGYTFGQGTNLEIK
notes: also called H2M6959N2
B6: H1H6801P (antibody, human IgG1, V domains shown)
VH: QVQLQQSGPGLVKPSQTLSLTCVISGDSVSSNTAWNWVRQSPSRGLEWLGRTYYRSKWYNDYAVSVKSRITINPDTSKNQFSLLMNSVTPEDTAVYYCARVVRGLNYFDYWGQGTLVTVSS
VL: DIVMTQSPDSLAVSLGERATINCKSSQSVLYNSNNKNYLAWYQQKPGQPPKLLIYWSSSRESGVPDRFSGSGSGTDFTLTISGLQAEDVAIYYCQQYSTIPYTFGQGTKLEIK
notes: human IgG1 Fc (H1H)

The first assay addresses T1, mouse PRLR on HEK293 cells. Description: FACS, HEK293/mPRLR cells. Further: test concentration or dose not given here.
B1: the “FACS Cell Binding (Fold Above Background)” value came to 1 fold above background.

As for B2, the “FACS Cell Binding (Fold Above Background)” value was 1 fold above background.

For B3, the “FACS Cell Binding (Fold Above Background)” value amounted to 2 fold above background.

Turning to B4, the “FACS Cell Binding (Fold Above Background)” value amounted to 1 fold above background.

On to B5, for which the “FACS Cell Binding (Fold Above Background)” value was 2 fold above background.

The target in another assay is T2, monkey (macaca fascicularis) PRLR on …. Description: FACS, HEK293/mfPRLR cells. (Flow cytometry measures light scatter and fluorescence of single cells or particles in a stream.); further: test concentration or dose not given here
Take B6: the “FACS Cell Binding (Fold Above Background)” value is 88 fold above background.

Regarding B1, the “FACS Cell Binding (Fold Above Background)” value was 28 fold above background.

Take B2: the “FACS Cell Binding (Fold Above Background)” value was determined as 29 fold above background.

Regarding B3, the “FACS Cell Binding (Fold Above Background)” value turned out to be 26 fold above background.

Regarding B4, the “FACS Cell Binding (Fold Above Background)” value came out at 29 fold above background.

Turning to B5, the “FACS Cell Binding (Fold Above Background)” value is 11 fold above background.

In a further assay the target is T3, human prolactin receptor (PRLR) on cells. Description: cell-based or functional assay.
For B6, the “% Internalization relative to Control I (alexa488 intensity in intracellular vesicles at 37 C, T47D cells)” value (from here on “% Internalization relative to Control I”) was 149%.

For the molecule B1, the “% Internalization relative to Control I” value came to 190%.

For the molecule B2, the “% Internalization relative to Control I” value was 198%.

Consider B3, for which the “% Internalization relative to Control I” value came out at 186%.

For B4, the “% Internalization relative to Control I” value worked out at 214%.

Regarding B5, the “% Internalization relative to Control I” value was determined as 15.3%.

Another assay has the same target. The assay can be described thus: FACS, T47D cells (native PRLR). Further: test concentration or dose not given here.
For B6, the “FACS Cell Binding (Fold Above Background)” value was determined as 45 fold above background.

As for B1, the “FACS Cell Binding (Fold Above Background)” value is 39 fold above background.

B2: the “FACS Cell Binding (Fold Above Background)” value turned out to be 41 fold above background.

For the molecule B3, the “FACS Cell Binding (Fold Above Background)” value came to 38 fold above background.

With B4, the “FACS Cell Binding (Fold Above Background)” value is 46 fold above background.

B5: the “FACS Cell Binding (Fold Above Background)” value came to 9 fold above background.

For a further assay, the target named is T4, hPRLR.mFc (soluble dimeric human PRLR). The assay can be described thus: SPR, 37C, mAb capture. As for the experimental part: (§1) Measurements were conducted on a T200 Biacore instrument. Kinetic association (kₐ) and dissociation (kd) rate constants were determined by processing and fitting the data to a 1:1 binding model using Scrubber 2.0 curve fitting software. Binding dissociation equilibrium constants (KD) and dissociative half-lives (t_{1/2}) were calculated from the kinetic rate constants as: KD (M)=kd/kₐ; and […].
In general terms: SPR reads the build-up and loss of mass on a sensor chip optically.
Consider B6, for which the T½ stood at 52 min.

B1 showed a T½ of 186 min.

On to B2, for which the T½ was determined as 79 min.

Consider B3, for which the T½ is 112 min.

In the case of B4, the T½ turned out to be 163 min.

Regarding B5, the T½ stood at 5 min.

Another assay has as its target T5, hPRLR.mmh (soluble monomeric human PRLR). Description: SPR, 37C, mAb capture. As for the experimental part:
as §1
B6 returned a T½ of 3 min.

With B1, the T½ came to 32 min.

B2 registered a T½ of 10 min.

The molecule B3 had a T½ of 25 min.

In the case of B4, the T½ turned out to be 42.3 min.

Molecule B5 showed a T½ of 0.4 min.

Another assay concerns the target T6, mfPRLR.mmh (soluble monomeric macaca …). The assay can be described thus: SPR, 37C, mAb capture. As for the experimental part:
as §1
As to B6, the T½ was 1 min.

B1: the T½ stood at 18 min.

In turn, B2 yielded a T½ of 11 min.

B3 registered a T½ of 21 min.

Consider B4, for which the T½ was 36.4 min.

For a further assay, the target named is T3, human prolactin receptor (PRLR) on cells. The assay can be described thus: FACS, HEK293/hPRLR cells. Further: test concentration or dose not given here.
On to B6, for which the “FACS Cell Binding (Fold Above Background)” value was 47 fold above background.

With B1, the “FACS Cell Binding (Fold Above Background)” value is 39 fold above background.

Consider B2, for which the “FACS Cell Binding (Fold Above Background)” value was determined as 35 fold above background.

On to B3, for which the “FACS Cell Binding (Fold Above Background)” value was 36 fold above background.

Turning to B4, the “FACS Cell Binding (Fold Above Background)” value stood at 38 fold above background.

Turning to B5, the “FACS Cell Binding (Fold Above Background)” value stood at 6 fold above background.
